B1: Azoarcus group I ribozyme (parent)
chain: GUGCCUUGCGCCGGGAAACCACGCAAGGGAUGGUGUCAAAUUCGGCGAAACCUAAGCGCCCGCCCGGGCGUAUGGCAACGCCGAGCCAAGCUUCGGCGCCUGCGCCGAUGAAGGUGUAGAGACUAGACGGCACCCACCUAAGGCAAACGCUAUGGUGAAGGCAUAGUCCAGGGAGUGGCGAAAGUCACACAAACCGG

Variants of: B1
Assay: reverse-splicing fitness (ratio to wild type); higher = more active; in vitro selection; Mg2+ level not given
Summary of the method: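 An in vitro group I ribozyme library with randomized positions was T7-transcribed and gel-purified. In triplicate, 10 pmol RNA in EPPS pH 7.5 was reacted with 50 pmoles of a 30-nt RNA substrate for 1 h at 37 °C across several added MgCl2 levels (1–48 mM), then stopped with EDTA. Products were reverse transcribed from a substrate-complementary primer, PCR-amplified and sequenced (HiSeq 4000). Fitness is a variant's read proportion after selection over that before, normalised to wild type.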

Going from GUGCCUUGCGCCGGGAAACCACGCAAGGGAUGGUGUCAAAUUCGGCGAAACCUAAGCGCCCGCCCGGGCGUAUGGCAACGCUGAGCCAAGCUUCGGCGCCUGCGCCGAUGAAGGUGUAGUGACUAGACGGCACCCACCUAAGGCCAACGUUAUGGUGAAGGCAUAGUCAAGGGAGCGGCGAAAGUCACACAAACCGG to GUGCCUUGCGCCGGGAAACCACGCAAGGGAUGGUGUCAAAUUCGGCGAAACCUAAGCGCCCGCCCGGGCGUAUGGCAACGCUGAGCCAAGCUUCGGCGCCUGCGCCGAUGAAGGUGUAGUGACUAGACGGCACCCACCUAAGGCCAACGUUAUGGUGAAGGCAUAGUCAAGGGAGAGGCGAAAGUCACACAAACCGG, the reverse-splicing fitness rises from 0.00189 to 0.00242.

Going from GUGCCUUGCGCCGGGAAACCACGCAAGGGAUGGUGUCAAAUUCGGCGAAACCUAAGCGCCCGCCCGGGCGUAUGGCAACGCUGAGCCAAGCUUCGGCGCCUGCGCCGAUGAAGGUGUAGUGACUAGACGGCACCCACCUAAGGCCAACGUUAUGGUGAAGGCAUAGUCAAGGGAGGGGCGAAAGUCACACAAACCGG to GUGCCUUGCGCCGGGAAACCACGCAAGGGAUGGUGUCAAAUUCGGCGAAACCUAAGCGCCCGCCCGGGCGUAUGGCAACGCUGAGCCAAGCUUCGGCGCCUGCGCCGAUGAAGGUGUAGUGACUAGACGGCACCCACCUAAGGCCAACGGUAUGGUGAAGGCAUAGUCCAGGGAGCGGCGAAAGUCACACAAACCGG, the reverse-splicing fitness rises from 0.00165 to 0.00864.

First: GUGCCUUGCGCCGGGAAACCACGCAAGGGAUGGUGUCAAAUUCGGCGAAACCUAAGCGCCCGCCCGGGCGUAUGGCAACGCUGAGCCAAGCUUCGGCGCCUGCGCCGAUGAAGGUGUAGUGACUAGACGGCACCCACCUAAGGCCAACGGUAUGGUGAAGGCAUAGUCCAGGGAGGGGCGAAAGUCACACAAACCGG
Second: GUGCCUUGCGCCGGGAAACCACGCAAGGGAUGGUGUCAAAUUCGGCGAAACCUAAGCGCCCGCCCGGGCGUAUGGCAACGCUGAGCCAAGCUUCGGCGCCUGCGCCGAUGAAGGUGUAGUGACUAGACGGCACCCACCUAAGGCCAACGGUAUGGUGAAGGCAUAGUCCAGGGAGAGGCGAAAGUCACACAAACCGG
The reverse-splicing fitness of the first is lower: 0.00242 for the first, 0.0055 for the second.

Going from GUGCCUUGCGCCGGGAAACCACGCAAGGGAUGGUGUCAAAUUCGGCGAAACCUAAGCGCCCGCCCGGGCGUAUGGCAACGCUGAGCCAAGCUUCGGCGCCUGCGCCGAUGAAGGUGUAGUGACUAGACGGCACCCACCUAAGGCCAACGUUAUGGUGAAGGCAUAGUCCAGGGAGCGGCGAAAGUCACACAAACCGG to GUGCCUUGCGCCGGGAAACCACGCAAGGGAUGGUGUCAAAUUCGGCGAAACCUAAGCGCCCGCCCGGGCGUAUGGCAACGCUGAGCCAAGCUUCGGCGCCUGCGCCGAUGAAGGUGUAGUGACUAGACGGCACCCACCUAAGGCCAACGUUAUGGUGAAGGCAUAGUCCAGGGAGAGGCGAAAGUCACACAAACCGG, the reverse-splicing fitness falls from 0.0162 to 0.0114.

Compared with GUGCCUUGCGCCGGGAAACCACGCAAGGGAUGGUGUCAAAUUCGGCGAAACCUAAGCGCCCGCCCGGGCGUAUGGCAACGCUGAGCCAAGCUUCGGCGCCUGCGCCGAUGAAGGUGUAGUGACUAGACGGCACCCACCUAAGGCCAACGUUAUGGUGAAGGCAUAGUCUAGGGAGCGGCGAAAGUCACACAAACCGG, GUGCCUUGCGCCGGGAAACCACGCAAGGGAUGGUGUCAAAUUCGGCGAAACCUAAGCGCCCGCCCGGGCGUAUGGCAACGCUGAGCCAAGCUUCGGCGCCUGCGCCGAUGAAGGUGUAGUGACUAGACGGCACCCACCUAAGGCCAACGUUAUGGUGAAGGCAUAGUCUAGGGAGGGGCGAAAGUCACACAAACCGG is lower in reverse-splicing fitness: 0.00187 for the first, 0.0015 for the second.

Compared with GUGCCUUGCGCCGGGAAACCACGCAAGGGAUGGUGUCAAAUUCGGCGAAACCUAAGCGCCCGCCCGGGCGUAUGGCAACGCUGAGCCAAGCUUCGGCGCCUGCGCCGAUGAAGGUGUAGUGACUAGACGGCACCCACCUAAGGCCAACGUUAUGGUGAAGGCAUAGUCUAGGGAGAGGCGAAAGUCACACAAACCGG, GUGCCUUGCGCCGGGAAACCACGCAAGGGAUGGUGUCAAAUUCGGCGAAACCUAAGCGCCCGCCCGGGCGUAUGGCAACGCUGAGCCAAGCUUCGGCGCCUGCGCCGAUGAAGGUGUAGUGACUAGACGGCACCCACCUAAGGCCAACGGUAUGGUGAAGGCAUAGUCAAGGGAGCGGCGAAAGUCACACAAACCGG is lower in reverse-splicing fitness: 0.00232 for the first, 0.00196 for the second.

First: GUGCCUUGCGCCGGGAAACCACGCAAGGGAUGGUGUCAAAUUCGGCGAAACCUAAGCGCCCGCCCGGGCGUAUGGCAACGCUGAGCCAAGCUUCGGCGCCUGCGCCGAUGAAGGUGUAGUGACUAGACGGCACCCACCUAAGGCCAACGGUAUGGUGAAGGCAUAGUCAAGGGAGGGGCGAAAGUCACACAAACCGG
Second: GUGCCUUGCGCCGGGAAACCACGCAAGGGAUGGUGUCAAAUUCGGCGAAACCUAAGCGCCCGCCCGGGCGUAUGGCAACGCUGAGCCAAGCUUCGGCGCCUGCGCCGAUGAAGGUGUAGUGACUAGACGGCACCCACCUAAGGCCAACGGUAUGGUGAAGGCAUAGUCAAGGGAGAGGCGAAAGUCACACAAACCGG
The reverse-splicing fitness of the first is lower: 0.00188 for the first, 0.00201 for the second.

Variant GUGCCUUGCGCCGGGAAACCACGCAAGGGAUGGUGUCAAAUUCGGCGAAACCUAAGCGCCCGCCCGGGCGUAUGGCAACGCUGAGCCAAGCUUCGGCGCCUGCGCCGAUGAAGGUGUAGUGACUAGACGGCACCCACCUAAGGCCAACGGUAUGGUGAAGGCAUAGUCGAGGGAGGGGCGAAAGUCACACAAACCGG has a reverse-splicing fitness of 0.00188.

— the RNAGym collection of RNA variant scans (doi:10.1093/molbev/msab373)
